{"source": "the Human Domainome abundance scans (Beltran et al. 2025)", "parents": {"B1": {"name": "Syntaxin-binding protein 4, residues 493 to 538; numbered along this chain, Q6ZWJ1 (parent)", "chain": "LDMDCLPYGWEEAYTADGIKYFINHVTQTTSWIHPVMSVLNLSRSE"}}, "note": "± gives the uncertainty stated by the source.", "data": [{"variants_of": "B1", "assay": "abundance fitness (aPCA) (normalised: wild type 0, dead -1); higher = more abundant; growth selection in yeast, the domain comes from the species named", "details": "Homo sapiens", "values": [{"variant": "P7W", "abundance fitness": "-0.629 ± 0.099"}, {"variant": "P7K", "abundance fitness": "-0.649 ± 0.13"}, {"variant": "P7M", "abundance fitness": "-0.793 ± 0.12"}, {"variant": "P7A", "abundance fitness": "-0.646 ± 0.091"}, {"variant": "P7G", "abundance fitness": "-0.719 ± 0.086"}, {"variant": "N41W", "abundance fitness": "-0.197 ± 0.093"}, {"variant": "N41R", "abundance fitness": "-0.493 ± 0.096"}, {"variant": "N41M", "abundance fitness": "-0.403 ± 0.11"}, {"variant": "N41G", "abundance fitness": "-0.215 ± 0.083"}, {"variant": "N41L", "abundance fitness": "-0.684 ± 0.1"}, {"variant": "L6N", "abundance fitness": "-0.375 ± 0.16"}, {"variant": "E12R", "abundance fitness": "-0.804 ± 0.081"}, {"variant": "E12Q", "abundance fitness": "-0.463 ± 0.12"}, {"variant": "E12H", "abundance fitness": "-0.795 ± 0.17"}, {"variant": "E12P", "abundance fitness": "-0.795 ± 0.14"}, {"variant": "E12K", "abundance fitness": "-0.953 ± 0.13"}, {"variant": "E12D", "abundance fitness": "-0.89 ± 0.15"}, {"variant": "A16T", "abundance fitness": "-0.408 ± 0.088"}, {"variant": "A16N", "abundance fitness": "-0.283 ± 0.088"}, {"variant": "A16H", "abundance fitness": "-0.342 ± 0.091"}, {"variant": "A16I", "abundance fitness": "-0.716 ± 0.09"}, {"variant": "V26I", "abundance fitness": "-0.038 ± 0.094"}, {"variant": "S31F", "abundance fitness": "-0.734 ± 0.12"}, {"variant": "S31G", "abundance fitness": "-0.454 ± 0.1"}, {"variant": "S31T", "abundance fitness": "0.199 ± 0.09"}, {"variant": "S31R", "abundance fitness": "-0.818 ± 0.1"}, {"variant": "L42C", "abundance fitness": "0.025 ± 0.12"}, {"variant": "L42Y", "abundance fitness": "-0.876 ± 0.21"}, {"variant": "L42T", "abundance fitness": "0.048 ± 0.12"}, {"variant": "L42G", "abundance fitness": "0.174 ± 0.077"}, {"variant": "H25L", "abundance fitness": "-0.931 ± 0.15"}, {"variant": "H25R", "abundance fitness": "0.108 ± 0.085"}, {"variant": "H25P", "abundance fitness": "-0.236 ± 0.19"}, {"variant": "H25I", "abundance fitness": "-0.754 ± 0.27"}, {"variant": "H25C", "abundance fitness": "-0.824 ± 0.18"}, {"variant": "Q28I", "abundance fitness": "-0.664 ± 0.16"}, {"variant": "Q28A", "abundance fitness": "-0.509 ± 0.11"}, {"variant": "Q28T", "abundance fitness": "-0.81 ± 0.13"}, {"variant": "Q28P", "abundance fitness": "-0.793 ± 0.14"}, {"variant": "Q28L", "abundance fitness": "-1 ± 0.13"}, {"variant": "I33F", "abundance fitness": "-0.549 ± 0.22"}, {"variant": "I33S", "abundance fitness": "0.1 ± 0.1"}, {"variant": "I33W", "abundance fitness": "-0.743 ± 0.13"}, {"variant": "I33T", "abundance fitness": "-0.075 ± 0.12"}, {"variant": "I33G", "abundance fitness": "-0.199 ± 0.088"}, {"variant": "H34E", "abundance fitness": "-0.826 ± 0.13"}]}]}
